Columns and labels:
[1] = biological target: T1, D-dimer (cross-linked fibrin degradation product) (Homo sapiens, UniProt P02671;P02675;P02679 SEQ:1-87,SEQ:1-328,SEQ:1-324); test: ELONA; 25 nM; details: tags: none stated; about 180 kDa; chain copies: 2 of each chain (inferred); label: biotin (5' or 3')
Protocol: (§1) 25 nM of either 3′ Bioitnilated ADI1701, Truncation 1, Truncation 2, Truncation 3, Truncation 4, Truncation 5, scrambled sequence 1, scrambled sequence 2 and scrambled sequence 3 was incubated with D-Dimer protein immobilized on a 96 well ELISA plate. As a control, 3′ Biotin-ADI1701 was incubated with fibrinogen or two plasma samples from donors with low D-Dimer levels (<200 ng/ml) immobilized on the plate. Absorbance was measured after incubation with streptavidin horse radish peroxidase bound to the biotinylated aptamer in the presence of the substrate 3,3′,5,5′-Tetramethylbenzidine (TMB). […] Deleting three or five bases from the 5′ end of ADI1701 decreased the binding to D-dimer by 33%. […] The values shown are subtracted from the absorbance measured in the presence of albumin that was used as the blank.
(§2) Various truncations were made to the 3′ Biotinylated-ADI1701 aptamer from the 5′ and 3′-ends. Deleting as little as 3 bases from the 5′-end or 5 bases from the 3′-end affected the binding of ADI1701 to D-dimer (FIG. 7). Again, none of the scrambled sequences with Biotin label on either the 5′ or 3′-ends presented any binding to D-dimer.

[2] = biological target: T1, D-dimer (cross-linked fibrin …); test: SPR; SPRi, biotinylated aptamer on streptavidin gold, 10 nM D-dimer in flow; ka 2.0e6, kd 0.0048 per s; details: tags: none stated; about 180 kDa; chain copies: 2 of each chain (inferred); label: 3' biotin
Protocol: Interaction between ADI1701 and D-dimer was analyzed by a SPR device, Openplex SPRi system from Horiba Scientific. Various amounts of ADI1701 (5 fmol, 50 fmmol and 500 fmol) were immobilized on a gold sensor chip, and D-dimer (10 nM) was injected to the flow cell, and ScrubberGen Ver. 2.0g software was used to subtract the references. […] Nonspecific binding of D-dimer to ADI1701scram was subtracted at the respective concentrations.
Further studies on the specificity and affinity of binding of ADI1701 to D-dimer were performed using Surface plasmon resonance (SPR). SPR has become an important optical bio-sensing technology in the areas of biochemistry, biology, and medical sciences because of its real-time, label-free, and noninvasive nature. Various amounts of biotinylated ADI1701 were immobilized on streptavidin coated gold surface and D-dimer to flow through. It is shown herein that ADI1701 binds directly to D-Dimer (FIG. 8).

Fibrinogen [3] = biological target: T2, Fibrinogen (UniProt P02671-2;P02675;P02679-2 P02671-2:20-644,P02675:31-491,P02679-2:27-437); test: ELONA; 25 nM aptamer, immobilized fibrinogen; low D-dimer plasma also negative; details: chain copies: 2; label: 3' biotin
T2 sequence (P02671 other isoform, or with tags, fused parts or gaps, chain 1 of 3): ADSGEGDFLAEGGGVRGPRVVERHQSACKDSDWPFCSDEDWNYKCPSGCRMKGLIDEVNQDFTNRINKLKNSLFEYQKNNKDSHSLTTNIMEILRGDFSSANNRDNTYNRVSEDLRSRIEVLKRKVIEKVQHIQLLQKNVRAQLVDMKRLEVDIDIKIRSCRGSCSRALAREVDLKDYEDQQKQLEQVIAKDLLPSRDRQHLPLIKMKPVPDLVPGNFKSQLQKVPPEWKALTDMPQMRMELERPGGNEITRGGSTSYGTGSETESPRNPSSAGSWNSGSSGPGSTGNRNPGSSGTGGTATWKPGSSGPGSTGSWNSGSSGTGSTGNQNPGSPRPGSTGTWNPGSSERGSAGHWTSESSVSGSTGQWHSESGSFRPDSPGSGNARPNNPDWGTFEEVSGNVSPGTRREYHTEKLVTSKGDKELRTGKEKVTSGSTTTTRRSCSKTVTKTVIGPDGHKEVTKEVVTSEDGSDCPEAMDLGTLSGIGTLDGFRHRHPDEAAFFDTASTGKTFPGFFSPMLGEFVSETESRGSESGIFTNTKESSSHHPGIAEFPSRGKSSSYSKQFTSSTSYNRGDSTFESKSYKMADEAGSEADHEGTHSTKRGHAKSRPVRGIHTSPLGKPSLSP
T2 sequence (P02675 31-491, chain 2 of 3): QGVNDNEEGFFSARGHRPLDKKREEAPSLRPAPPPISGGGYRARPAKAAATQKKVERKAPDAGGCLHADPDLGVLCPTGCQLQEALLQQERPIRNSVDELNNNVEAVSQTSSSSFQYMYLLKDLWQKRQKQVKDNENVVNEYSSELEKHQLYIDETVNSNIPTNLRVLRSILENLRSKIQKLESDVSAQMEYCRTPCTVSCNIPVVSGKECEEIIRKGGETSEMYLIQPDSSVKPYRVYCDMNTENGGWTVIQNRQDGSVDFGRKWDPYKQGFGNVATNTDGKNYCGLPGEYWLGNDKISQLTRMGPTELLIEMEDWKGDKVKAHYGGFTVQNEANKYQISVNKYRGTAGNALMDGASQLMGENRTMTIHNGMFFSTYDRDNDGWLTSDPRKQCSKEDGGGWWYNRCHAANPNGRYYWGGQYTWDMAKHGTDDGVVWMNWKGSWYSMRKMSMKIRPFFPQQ
T2 sequence (P02679 other isoform, or with tags, fused parts or gaps, chain 3 of 3): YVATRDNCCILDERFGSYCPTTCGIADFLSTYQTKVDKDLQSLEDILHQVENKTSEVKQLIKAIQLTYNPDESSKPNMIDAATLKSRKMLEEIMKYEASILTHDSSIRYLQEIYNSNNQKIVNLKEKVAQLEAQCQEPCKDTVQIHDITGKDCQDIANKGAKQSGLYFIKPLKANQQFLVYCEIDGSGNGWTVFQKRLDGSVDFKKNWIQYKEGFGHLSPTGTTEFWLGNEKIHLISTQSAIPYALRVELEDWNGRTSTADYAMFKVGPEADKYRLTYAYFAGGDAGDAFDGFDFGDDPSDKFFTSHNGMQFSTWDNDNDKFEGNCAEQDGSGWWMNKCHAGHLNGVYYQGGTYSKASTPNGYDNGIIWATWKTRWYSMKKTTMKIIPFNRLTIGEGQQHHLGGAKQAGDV
Protocol: as §1, §2

[4] = biological target: T1, D-dimer (cross-linked fibrin …); test: latex bead agglutination; seen at lower concentration than with fibrinogen; details: tags: none stated; about 180 kDa; chain copies: 2 of each chain (inferred)
Protocol: (§3) FIGS. 10A and 10B show photomicrographs of Latex-Aptamer Beads at Different Preparations and at Two Extreme Levels of D-Dimer Concentration. […] The well concentration of the proteins are (serial dilution from left to right, per 150 uL total well volume): 10 nM, 5 nM, 2.5 nM and 1.25 nM of D-Dimer; 10 nM, 5 nM, 2.5 nM and 1.25 nM of Fibrinogen; 750 nM, 375 nM, 188 nM and 94 nM of the BSA. (Ref: NB3, p 19-20, Aug. 29, 2017). 50 ul of aptamer conjugated to the latex beads were added to each well.
(§4) FIG. 10 represents an image of the wells section of a 96-well plate with the initial testing of coagulation.

Bovine serum albumin = Bovine serum albumin (Bos taurus, UniProt P02769 P02769:25-607); test: latex bead agglutination, no agglutination at highest BSA amount
Bovine serum albumin, sequence (P02769 25-607, one chain of several): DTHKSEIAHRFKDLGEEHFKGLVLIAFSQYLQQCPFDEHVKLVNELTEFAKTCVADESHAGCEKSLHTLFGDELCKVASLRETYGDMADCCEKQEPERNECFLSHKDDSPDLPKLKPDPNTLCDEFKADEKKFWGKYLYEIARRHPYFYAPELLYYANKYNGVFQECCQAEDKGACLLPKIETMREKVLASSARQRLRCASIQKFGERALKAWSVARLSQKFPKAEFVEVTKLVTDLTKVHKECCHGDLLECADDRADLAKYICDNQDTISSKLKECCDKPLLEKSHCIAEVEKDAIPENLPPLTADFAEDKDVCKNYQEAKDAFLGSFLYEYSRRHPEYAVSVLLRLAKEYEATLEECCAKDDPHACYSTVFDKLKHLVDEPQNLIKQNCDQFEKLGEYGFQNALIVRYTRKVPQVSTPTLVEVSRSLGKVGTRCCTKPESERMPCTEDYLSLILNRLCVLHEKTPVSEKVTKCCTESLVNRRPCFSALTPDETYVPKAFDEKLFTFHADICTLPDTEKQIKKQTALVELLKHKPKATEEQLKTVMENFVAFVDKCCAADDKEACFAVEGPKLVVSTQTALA
Protocol: as §3, §4

Fibrinogen [5] = biological target: T2, Fibrinogen; test: EMSA; native PAGE, no band overlapping fibrinogen; details: chain copies: 2
[6] = biological target: T1, D-dimer (cross-linked fibrin …); test: ELONA; estimated from saturation curve; text says 5' biotin, FIG. 6 legend says 3' biotin; details: tags: none stated; about 180 kDa; chain copies: 2 of each chain (inferred); label: 5' biotin

T1 sequence (P02671 130-216, chain 1 of 3): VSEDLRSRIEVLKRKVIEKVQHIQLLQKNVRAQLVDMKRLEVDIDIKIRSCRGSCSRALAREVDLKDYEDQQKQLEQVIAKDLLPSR
T1 sequence (P02675 164-491, chain 2 of 3): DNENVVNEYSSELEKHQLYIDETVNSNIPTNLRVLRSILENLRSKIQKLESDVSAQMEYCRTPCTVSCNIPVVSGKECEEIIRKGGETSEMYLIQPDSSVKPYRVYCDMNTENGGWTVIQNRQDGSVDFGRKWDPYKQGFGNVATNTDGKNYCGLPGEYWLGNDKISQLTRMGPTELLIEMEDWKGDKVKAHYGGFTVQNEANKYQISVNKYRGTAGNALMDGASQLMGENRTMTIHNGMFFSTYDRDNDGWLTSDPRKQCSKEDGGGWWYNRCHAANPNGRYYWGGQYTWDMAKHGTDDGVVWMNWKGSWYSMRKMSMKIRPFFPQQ
T1 sequence (P02679 other isoform, or with tags, fused parts or gaps, chain 3 of 3): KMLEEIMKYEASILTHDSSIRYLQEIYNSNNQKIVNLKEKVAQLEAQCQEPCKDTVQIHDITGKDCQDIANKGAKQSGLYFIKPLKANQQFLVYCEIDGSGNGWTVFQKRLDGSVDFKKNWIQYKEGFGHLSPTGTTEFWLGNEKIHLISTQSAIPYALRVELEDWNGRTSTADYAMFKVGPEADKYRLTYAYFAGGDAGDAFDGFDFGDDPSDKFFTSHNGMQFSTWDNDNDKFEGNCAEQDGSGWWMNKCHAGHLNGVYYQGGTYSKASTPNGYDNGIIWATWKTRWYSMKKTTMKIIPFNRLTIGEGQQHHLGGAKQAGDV

TTGTTAGATACTCGCTCTCATCCGCCGTACAACTGGCCAG (ssDNA) [Scrambled Sequence 1]: no binding [1].

ACTACCGATGCGGACTTATCCGCACGTACCGCTATTGTAG (ssDNA) [Scrambled Sequence 2]: no binding [1].

With GCGCGGTCCCGATTTGGTGTAAAATTCCCTCAGCCCTACA (ssDNA) [3'Biotin-ADI1701] the Kd [2] was 2.5 nM and the binding result (Fibrinogen [3]) was “no binding”.

GCGCGGTCCCGATTTGGTGTAAAATTCCCTCAGCCCTACA (ssDNA, NH2-C6 linker, latex conjugate) [ADI1701-latex (NH2-C6-ADI1701 coupled to beads)]: binds [4]; no binding (Bovine serum albumin).

GCGCGGTCCCGATTTGGTGTAAAATTCCCTCAGCCCTACA (ssDNA) [ADI1701]: no binding (Fibrinogen [5]).

In the case of GCGCGGTCCCGATTTGGTGTAAAATTCCCTCAGCCCTACA (ssDNA) [5'Biotin-ADI1701], the Kd [6] is reported as ~10 nM.

Reference: US20230201357, “D-DIMER-SPECIFIC APTAMERS AND METHODS OF USE IN DIAGNOSTICS, THERAPEUTIC AND THERANOSTIC PURPOSES” (APTAMER DIAGNOSTIC, INC., published 2023)
